The experiment has as its target T1, CIPK1-His (Arabidopsis, UniProt Q8RWC9 1-444).
T1 construct: source: E. coli BL21 (Rosetta), purified; not shown: 6xHis, C-terminal, kept
T1 sequence (looked up): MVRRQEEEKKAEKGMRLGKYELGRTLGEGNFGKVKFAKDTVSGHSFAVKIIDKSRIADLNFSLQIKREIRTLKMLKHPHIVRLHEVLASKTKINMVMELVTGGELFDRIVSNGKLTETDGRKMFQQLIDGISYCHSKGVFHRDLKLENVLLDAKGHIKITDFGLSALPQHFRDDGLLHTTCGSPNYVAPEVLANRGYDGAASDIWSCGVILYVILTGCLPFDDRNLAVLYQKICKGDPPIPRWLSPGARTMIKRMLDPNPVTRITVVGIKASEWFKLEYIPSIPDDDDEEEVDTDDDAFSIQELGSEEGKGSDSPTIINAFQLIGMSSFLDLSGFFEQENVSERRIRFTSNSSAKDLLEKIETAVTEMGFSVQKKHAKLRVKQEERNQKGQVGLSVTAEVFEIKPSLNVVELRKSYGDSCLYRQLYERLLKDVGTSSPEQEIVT
The experiment can be described thus: pull-down; 5 ug GST-PYR1/PYLs on GST resin at 4 C for 2 h, then 2 ug CIPK1-His for 2 h in pull-down buffer; 6 washes; blots with anti-His and anti-GST. The settings on record: both partners purified.

This note sets out measurements from article PMC10514306, “The CBL1/9-CIPK1 calcium sensor negatively regulates drought stress by phosphorylating the PYLs ABA receptor” (Nature Communications, 2023).

B1: GST-PYR1 (receptor, Arabidopsis, UniProt O49686 1-191, looked up)
chain: MPSELTPEERSELKNSIAEFHTYQLDPGSCSSLHAQRIHAPPELVWSIVRRFDKPQTYKHFIKSCSVEQNFEMRVGCTRDVIVISGLPANTSTERLDILDDERRVTGFSIIGGEHRLTNYKSVTTVHRFEKENRIWTVVLESYVVDMPEGNSEDDTRMFADTVVKLNLQKLATVAEAMARNSGDGSGSQVT
notes: PYR1, ABA receptor, Arabidopsis; source: recombinant protein, purified; not shown: GST, N-terminal, kept
Regarding B1, the binding result is on record as “binds”.

B2: GST-PYL1 (receptor, Arabidopsis, UniProt Q8VZS8 1-221, looked up)
chain: MANSESSSSPVNEEENSQRISTLHHQTMPSDLTQDEFTQLSQSIAEFHTYQLGNGRCSSLLAQRIHAPPETVWSVVRRFDRPQIYKHFIKSCNVSEDFEMRVGCTRDVNVISGLPANTSRERLDLLDDDRRVTGFSITGGEHRLRNYKSVTTVHRFEKEEEEERIWTVVLESYVVDVPEGNSEEDTRLFADTVIRLNLQKLASITEAMNRNNNNNNSSQVR
notes: PYL1, ABA receptor, Arabidopsis; source: recombinant protein, purified; not shown: GST, N-terminal, kept
For the molecule B2, the binding result is on record as “binds”.

B3: GST-PYL2 (receptor, Arabidopsis, UniProt O80992 1-190, looked up)
chain: MSSSPAVKGLTDEEQKTLEPVIKTYHQFEPDPTTCTSLITQRIHAPASVVWPLIRRFDNPERYKHFVKRCRLISGDGDVGSVREVTVISGLPASTSTERLEFVDDDHRVLSFRVVGGEHRLKNYKSVTSVNEFLNQDSGKVYTVVLESYTVDIPEGNTEEDTKMFVDTVVKLNLQKLGVAATSAPMHDDE
notes: PYL2, ABA receptor, Arabidopsis; source: recombinant protein, purified; not shown: GST, N-terminal, kept
With B3, the binding result is listed as “binds”.

B4: GST-PYL4 (receptor, Arabidopsis, UniProt O80920 1-207, looked up)
chain: MLAVHRPSSAVSDGDSVQIPMMIASFQKRFPSLSRDSTAARFHTHEVGPNQCCSAVIQEISAPISTVWSVVRRFDNPQAYKHFLKSCSVIGGDGDNVGSLRQVHVVSGLPAASSTERLDILDDERHVISFSVVGGDHRLSNYRSVTTLHPSPISGTVVVESYVVDVPPGNTKEETCDFVDVIVRCNLQSLAKIAENTAAESKKKMSL
notes: PYL4, ABA receptor, Arabidopsis; source: recombinant protein, purified; not shown: GST, N-terminal, kept
On to B4, for which the binding result is on record as “binds”.

B5: GST-PYL6 (receptor, Arabidopsis, UniProt Q8S8E3 1-215, looked up)
chain: MPTSIQFQRSSTAAEAANATVRNYPHHHQKQVQKVSLTRGMADVPEHVELSHTHVVGPSQCFSVVVQDVEAPVSTVWSILSRFEHPQAYKHFVKSCHVVIGDGREVGSVREVRVVSGLPAAFSLERLEIMDDDRHVISFSVVGGDHRLMNYKSVTTVHESEEDSDGKKRTRVVESYVVDVPAGNDKEETCSFADTIVRCNLQSLAKLAENTSKFS
notes: PYL6, ABA receptor, Arabidopsis; source: recombinant protein, purified; not shown: GST, N-terminal, kept
B5: the binding result was “binds”.

B6: GST-PYL3 (receptor, Arabidopsis, UniProt Q9SSM7 1-209, looked up)
chain: MNLAPIHDPSSSSTTTTSSSTPYGLTKDEFSTLDSIIRTHHTFPRSPNTCTSLIAHRVDAPAHAIWRFVRDFANPNKYKHFIKSCTIRVNGNGIKEIKVGTIREVSVVSGLPASTSVEILEVLDEEKRILSFRVLGGEHRLNNYRSVTSVNEFVVLEKDKKKRVYSVVLESYIVDIPQGNTEEDTRMFVDTVVKSNLQNLAVISTASPT
notes: PYL3, ABA receptor, Arabidopsis; source: recombinant protein, purified; not shown: GST, N-terminal, kept
Consider B6, for which the binding result was “binds”.

B7: GST-PYL5 (receptor, Arabidopsis, UniProt Q9FLB1 1-203, looked up)
chain: MRSPVQLQHGSDATNGFHTLQPHDQTDGPIKRVCLTRGMHVPEHVAMHHTHDVGPDQCCSSVVQMIHAPPESVWALVRRFDNPKVYKNFIRQCRIVQGDGLHVGDLREVMVVSGLPAVSSTERLEILDEERHVISFSVVGGDHRLKNYRSVTTLHASDDEGTVVVESYIVDVPPGNTEEETLSFVDTIVRCNLQSLARSTNRQ
notes: PYL5, ABA receptor, Arabidopsis; source: recombinant protein, purified; not shown: GST, N-terminal, kept
In the case of B7, the binding result is “binds”.
